Source: patent US8138307 (CEDARS SINAI MEDICAL CENTER, dated 2012)

Legend:
[1] = target: T1, GAL4 activation domain-MP36a fusion (pGAD10 clone MP36a) (UniProt P04386 768-881); test: yeast two-hybrid liquid assay (β-galactosidase)
T1 construct: Prey clone from a human brain cDNA library

[2] = target: T2, GAL4 activation domain-MP23a fusion (pGAD10 clone MP23a, partial synapsin-like protein) (human); test: yeast two-hybrid liquid assay (β-galactosidase)
T2 construct: Partial clone; also called SLP (MP23a)
T2 chain: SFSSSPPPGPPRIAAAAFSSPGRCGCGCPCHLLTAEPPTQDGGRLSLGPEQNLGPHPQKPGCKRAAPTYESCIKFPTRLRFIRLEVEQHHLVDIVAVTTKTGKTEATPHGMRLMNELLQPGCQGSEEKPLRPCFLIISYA

B1: GAL4 binding domain-parkin(1-465) fusion encoded by pGBT9-parkin(1-465) (other, UniProt P04386 1-147, looked up)
chain: MKLLSSIEQACDICRLKKLKCSKEKPKCAKCLKNNWECRYSPKTKRSPLTRAHLTEVESRLERLEQLFLLIFPREDLDMILKMDSLQDIKALLTGLFVQDNVNKDAVTDRLASVETDMPLTLRQHRISATSSSEESSNKGQRQLTVSMIVFVRFNSSHGFPVEVDSDTSIFQLKEVVAKRQGVPADQLRVIFAGKELRNDWTVQNCDLDQQSIVHIVQRPWRKGQEMNATGGDDPRNAAGGCEREPQSLTRVDLSSSVLPGDSVGLAVILHTDSRKDSPPAGSPAGRSIYNSFYVYCKGPCQRVQPGKLRVQCSTCRQATLTLTQGPSCWDDVLIPNRMSGECQSPHCPGTSAEFFFKCGAHPTSDKETSVALHLIATNSRNITCITCTDVRSPVLVFQCNSRHVICLDCFHLYCVTRLNDRQFVHDPQLGYSLPCVAGCPNSLIKELHHFRILGEEQYNRYQQYGAEECVLQMGGVLCPRPGCGAGLLPEPDQRKVTCEGGNGLGCGFAFCRECKEAYHEGECSAVFEASGTTTQAYRVDERAAEQARWEAASKETIKKTTKPCPRCHVPVEKNGGCMHMKCPQPQCRLEWCWNCGCEWNRVCMGDHWFDV
notes: Yeast two-hybrid bait expressed in yeast strain Y190; also called parkin bait
[1]
  fold β-galactosidase activity over negative control vector pGBT9: ~20 fold
[2]
  fold β-galactosidase activity over negative control vector pGBT9: ~30 fold
